Reference: paper PMC11076555, “Dishevelled2 activates WGEF via its interaction with a unique internal peptide motif of the GEF” (Communications Biology, 2024)

B1: Human Dishevelled2 PDZ domain (domain or fragment, UniProt O14641 261-354, looked up)
chain: MSLNIITVTLNMEKYNFLGISIVGQSNERGDGGIYIGSIMKGGAVAADGRIEPGDMLLQVNDMNFENMSNDDAVRVLRDIVHKPGPIVLTVAKC
modifications: Monolith Red-maleimide 2nd generation cysteine-reactive fluorescent label (in the MST experiments)
notes: Dishevelled2 (Dvl2), human, PDZ domain; Addgene plasmid 38876 changed by a stop codon after C354 to remove the peptide fused at the C-terminus of the PDZ; Used unlabelled in the GEF assays and labelled in MST; also called Dvl2^PDZ; hDvl2^PDZ; source: E. coli Rosetta (DE3), purified (Ni-NTA, TEV cleavage, second Ni-NTA, gel filtration); not shown: His6, N-terminal, cleaved

Columns and labels:
[1] = target: Xenopus laevis WGEF (330-856) (Xenopus laevis); experiment: cell-based or functional assay
[2] = target: T1, human WGEF (330-581) (human, UniProt Q8IW93 330-581); experiment: MST; 50 nM fluorescently labelled Dvl2^PDZ (Red-maleimide, cysteine reactive); peptides serially diluted 1:2 16 times from about 3.4 mM, hWGEF (330-581) 138-0.0042 uM; 25 C, 30 min incubation; 10 mM Tris-HCl pH 8, 150 mM NaCl, 2 mM DTT, 5% glycerol, 0.05% Tween20; Monolith NT.115; triplicates; conditions: both partners purified
T1 construct: Weak-similarity guanine nucleotide exchange factor (WGEF, Arhgef19, Ephexin2), human, residues 330-581; also called hWGEF; hWGEF^330-581; not shown: GST, N-terminal, cleaved
T1 sequence (looked up): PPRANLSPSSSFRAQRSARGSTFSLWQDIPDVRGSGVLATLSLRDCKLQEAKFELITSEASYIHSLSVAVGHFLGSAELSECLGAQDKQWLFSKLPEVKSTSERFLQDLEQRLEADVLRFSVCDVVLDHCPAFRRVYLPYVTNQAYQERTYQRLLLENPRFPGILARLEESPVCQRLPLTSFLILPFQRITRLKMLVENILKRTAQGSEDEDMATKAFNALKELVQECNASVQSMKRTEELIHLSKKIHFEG

[3] = target: B1; experiment: as above; conditions: both partners purified

Binder: B1
- GEF activity of xWGEF330 (5 uM) on Mant-GDP loaded RhoA with 0, 25 and 50 uM Dvl2^PDZ; no observable change at 25 uM [1]: 4 fold
- Kd [2]: 7.9 µM

B2: WGEF^pep (internal PDZ binding motif peptide of WGEF) (peptide)
peptide: GSTFSLWQDIP
notes: also called WGEF IPM peptide; source: synthetic peptide, bought: Sai Biotech
- Kd [3]: 45 µM

B3: WGEF^pepI10A (peptide)
peptide: GSTFSLWQDAP
notes: WGEF (Arhgef19), human residues 349-359 with I10A; numbers count on: the peptide (1-11); I10 is I358 of human WGEF (from the printed limits); also called Ile at P1 to Ala; source: synthetic peptide, bought: Sai Biotech
- Kd [3]: 56 µM

B4: WGEF^pepL6A (peptide)
peptide: GSTFSAWQDIP
notes: WGEF (Arhgef19), human residues 349-359 with L6A; numbers count on: the peptide (1-11); L6 is L354 of human WGEF and L407 of Xenopus WGEF (from the printed limits); source: synthetic peptide, bought: Sai Biotech
- Kd [3]: 2400 µM

B5: WGEF^pepQ8A (peptide)
peptide: GSTFSLWADIP
notes: WGEF (Arhgef19), human residues 349-359 with Q8A; numbers count on: the peptide (1-11); Q8 is Q356 of human WGEF (from the printed limits); source: synthetic peptide, bought: Sai Biotech
- Kd [3]: 8.5 µM

B6: N3^pep (peptide)
peptide: EIVLWSDIP
notes: engineered peptide, closest homologue of WGEF^pep; structure with Dvl2^PDZ in PDB 3CC0; also called engineered internal peptide N3; source: synthetic peptide, bought: Sai Biotech
- Kd [3]: 54 µM
